Assay results taken from patent US10669350B2, “Antigen-binding constructs that bind to and inhibit catalase and/or superoxide dismutase as well as pharmaceutical compositions containing them for tumor therapy” (priority 2015, dated 2020).

T1: human catalase (Homo sapiens, UniProt P04040)
T1 sequence (P04040 2-527 limits assumed): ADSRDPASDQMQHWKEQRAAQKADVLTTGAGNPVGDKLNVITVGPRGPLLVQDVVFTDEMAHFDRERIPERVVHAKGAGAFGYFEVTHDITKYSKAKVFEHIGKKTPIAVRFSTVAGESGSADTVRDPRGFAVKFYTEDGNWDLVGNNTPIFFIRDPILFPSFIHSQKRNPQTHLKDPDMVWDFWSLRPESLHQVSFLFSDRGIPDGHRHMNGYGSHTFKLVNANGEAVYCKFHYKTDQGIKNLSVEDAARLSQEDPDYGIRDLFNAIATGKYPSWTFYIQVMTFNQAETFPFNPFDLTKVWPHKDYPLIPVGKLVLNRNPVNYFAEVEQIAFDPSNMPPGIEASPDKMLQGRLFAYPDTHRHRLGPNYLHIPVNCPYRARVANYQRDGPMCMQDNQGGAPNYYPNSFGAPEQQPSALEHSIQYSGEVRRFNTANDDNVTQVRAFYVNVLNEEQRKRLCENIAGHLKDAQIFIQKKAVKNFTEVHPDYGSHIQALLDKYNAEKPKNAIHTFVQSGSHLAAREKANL


Columns and labels:
human catalase [1] = molecular target: T1, human catalase; assay: Check for inhibition (neutralization) of catalase, expressed as ROS-dependent apoptosis induction in cell culture system; assay type: cell-based; design: catalase-neutralizing single domain VHH fragments only neutralize the membranous catalase of tumor cells; endogenous in cells; host or cells: MKN-45 human gastric carcinoma cells
From the text: For the determination of the neutralizing effect of single domain VHH or Fab fragments directed against catalase a test system is suitable that is based on the apoptosis-inducing effect of H2O2 and the degradation of H2O2 by catalase. Here, as the cellular test system both non-malignant and malignant cells can be employed. It is only required that apoptosis induction is quantitatively determinable in the selected cell system. As the H2O2 source, H2O2-generating glucose oxidase (GOX) is preferred over the direct addition of H2O2, because the continuous production of H2O2 by GOX (by using glucose from the culture medium of the cells) allows a very precise adjustment of the H2O2 flux. The test system is based on the inhibition of the apoptosis induction by GOX mediated by catalase and the restoration of the apoptosis induction by catalase-neutralizing single domain VHH or Fab fragments. […] For that, in general depending on the cell system, GOX concentrations between 0.1 and 40 mU/ml are required. In a second step, the concentration of human catalase is determined that is just sufficient to abolish the effect achieved by GOX. […] After successful determination of the suitable concentrations of GOX and catalase then the actual experiment for the determination of the catalase-neutralizing effect of single domain VHH or Fab fragments can be performed. For that, the selected catalase concentration is pre-incubated for 20 minutes with selected concentrations of the single domain VHH or Fab fragments to be tested. Subsequently, said mixture together with the concentration of GOX determined to be suitable is added to the cells and apoptosis induction is measured. A reliable neutralizing effect of the single domain VHH or Fab fragments is obtained if the inhibiting effect of the catalase on the GOX-mediated apoptosis induction was abolished by at least 90%, i.e. if 90% of the apoptosis induction value is achieved that is shown in control preparations without addition of catalase. If there is achieved an abolition of the inhibiting effect of catalase of at least 50% there may be assumed a significant inhibiting effect of the tested single domain VHH or Fab fragment. […]
[…] In a second run, by employing the cell culture system described by Heinzelmann and Bauer (Heinzelmann S. and Bauer G. Multiple protective functions of catalase against intercellular apoptosis-inducing ROS signaling of human tumor cells, Biol. Chem. 391, 675-693, 2010) it was checked which one of the single domain VHH fragments binding to catalase actually results in an inhibition of the catalase, what is expressed as ROS-dependent apoptosis induction in the cells. […] The clones underlying the single domain VHH fragments were sequenced by standard methods and the amino acid sequence was determined therefrom.

[2] = system: MKN-45 gastric carcinoma cells; assay: Standard preparation for autocrine ROS-controlled apoptosis induction in tumor cells (percentage of apoptotic cells); assay type: cell-based, human
Description: The experiments shown in FIG. 13-24 were carried out with a standard preparation for the apoptosis induction that is based on the method performed in Heinzelmann and Bauer 2010. The tumor cells used were taken from an optimally growing semi-sealed culture, centrifuged and placed in fresh medium. The test was performed in 96-well cell culture plates with 12 500 MKN-45 cells/100 μl medium or 10 000 SHEP cells/100 μl medium. MKN-45 cells grow in suspension, SHEP cells are adherent. The tests with SHEP cells were started as soon as the cells had grown on. By adding increasing concentrations of single domain VHH fragments that either inhibit catalase or SOD the protection of the tumor cells from their own ROS signaling was annulled so that based on the cell-owned extracellular superoxide anion production the NO/peroxynitrite signal path and the HOCl path (with MKN-45 cells) or in case of the SHEP cells only the NO/peroxynitrite path could start when the cells were incubated at 37° C. The analysis of the signal paths was carried out by the application of inhibitors of the NADPH oxidase (AEBSF), the HOCl scavenger taurine, the peroxynitrite scavenger FeTPPS and the singlet oxygen scavenger histidine. In some experiments for comparison instead of the single domain VHH fragments either recombinant Fab fragments or monoclonal antibodies were applied. This is indicated in the respective illustrations.
Double preparations were examined at the times shown in the text by means of phase contrast reverse microscopy for the percentage of apoptotic cells. Here, the classical apoptosis criteria described and documented in Heinzelmann and Bauer 2010 such as condensation of the nucleus, fragmentation of the nucleus, and membrane blebbing were used. Per single preparation at least 250 randomly selected cells were examined for the presence of apoptosis features. […]

human catalase [3] = molecular target: T1, human catalase; assay: ELISA selection of clones binding to human catalase
From the text: […] […] In a second run, by employing the cell culture system described by Heinzelmann and Bauer (Heinzelmann S. and Bauer G. Multiple protective functions of catalase against intercellular apoptosis-inducing ROS signaling of human tumor cells, Biol. Chem. 391, 675-693, 2010) it was checked which one of the single domain VHH fragments binding to catalase actually results in an inhibition of the catalase, what is expressed as ROS-dependent apoptosis induction in the cells. […] The clones underlying the single domain VHH fragments were sequenced by standard methods and the amino acid sequence was determined therefrom.

human SOD1 [4] = molecular target: T2, human SOD1 (Homo sapiens, UniProt P00441); assay: ELISA selection of clones binding to human SOD1
T2 sequence (P00441 2-154 limits assumed): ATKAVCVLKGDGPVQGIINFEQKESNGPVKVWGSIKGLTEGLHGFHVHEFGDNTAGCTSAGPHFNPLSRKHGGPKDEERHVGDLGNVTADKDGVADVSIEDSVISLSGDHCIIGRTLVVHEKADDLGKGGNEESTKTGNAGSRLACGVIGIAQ
From the text: The preparation was by immunizing alpacas with human SOD1 (SOD1=Cu/ZnSOD [EC 1.15.1.1] purified from human erythrocytes, obtained from Sigma (Schnelldorf), catalogue number S 9636) under supervision of a veterinary, obtaining RNA from the B cells of the animals, reverse transcription, cloning in E. coli and isolation via the phage display technology. […] In a second run, by employing the cell culture system described by Heinzelmann and Bauer (Multiple protective functions of catalase against intercellular apoptosis-inducing ROS signaling of human tumor cells, Biol. Chem. 391, 675-693, 2010) it was checked which of the single domain VHH fragments binding to SOD actually results in an inhibition of SOD, what is expressed in the tumor system used as ROS-dependent apoptosis induction in the cells, since by the inhibition of SOD the concentration of free superoxide anions dramatically increases due to the absence of the enzymatic dismutation and results in a parallel indirect inhibition of catalase. In the following, this is expressed as ROS-dependent apoptosis induction. In a further control trial the specific inhibition of SOD by recombinant single domain VHH fragments was verified by the fact that the increasing effect of these fragments on apoptosis induction by exogenously added HOCl was examined, as described in Bauer 2013 (HOCl-dependent singlet oxygen and hydroxyl radical generation modulate and induce apoptosis of malignant cells. Anticancer Res 33: 3589-3602, 2013).

human SOD1 [5] = molecular target: T2, human SOD1; assay: Check for inhibition (neutralization) of SOD, ROS-dependent apoptosis induction and HOCl control trial; assay type: cell-based; design: endogenous in cells; host or cells: MKN-45 human gastric carcinoma cells
From the text: Thus, the inhibition of the SOD mediated by single domain VHH or Fab fragments (comparison) can be determined by the fact that the apoptosis induction of tumor cells by exogenously added HOCl is employed as the test system. HOCl in a concentration depending manner induces apoptosis that is based on the interaction between HOCl and superoxide anions that results in the formation of aggressive hydroxyl radicals (Bauer G. HOCl-dependent singlet oxygen and hydroxyl radical generation modulate and induce apoptosis of malignant cells. Anticancer Res 33: 3589-3602, 2013). […] That is, the neutralizing effect of single domain VHH or Fab fragments can be determined by checking whether the inhibition of the apoptosis is abolished again by the single domain VHH or Fab fragments to be tested. The quantitative employment of said test system requires linking several simple steps the skilled person is familiar with. In the first step the concentration of commercially available HOCl (or sodium hypochlorite that sufficiently forms HOCl in medium) is determined that generates a significant quantifiable apoptosis signal within a reasonable trial time (1-2 hours). […] As soon as the first two steps have been satisfactorily performed there can take place the actual test of the inhibiting effect of the single domain VHH or Fab fragments. For that, selected concentrations of the fragments to be tested are pre-incubated for 20 minutes with the optimal concentration of SOD determined in advance in step #2. Subsequently, said mixture is added to the test cells. Thereafter, HOCl is added and the apoptosis induction is determined. […]
The preparation was by immunizing alpacas with human SOD1 (SOD1=Cu/ZnSOD [EC 1.15.1.1] purified from human erythrocytes, obtained from Sigma (Schnelldorf), catalogue number S 9636) under supervision of a veterinary, obtaining RNA from the B cells of the animals, reverse transcription, cloning in E. coli and isolation via the phage display technology. […] In the following, this is expressed as ROS-dependent apoptosis induction. […]

neutralization (inhibition) of human catalase (human catalase [1]) | binding to human catalase (human catalase [3]) | binding to human SOD1 (human SOD1 [4]) | neutralization (inhibition) of human SOD1 (human SOD1 [5]) | Molecule | apoptosis induction in the presence of peroxynitrite scavenger FeTPPS ([2]; 25 μM FeTPPS) | apoptosis induction in the presence of NOX1 inhibitor AEBSF ([2]; 100 μM AEBSF) | apoptosis induction in the presence of singlet oxygen scavenger histidine ([2]; 2 mM histidine) | apoptosis induction in the presence of HOCl scavenger taurine ([2]; 50 mM taurine) | apoptosis induction in combination with 0.005 pg/ml of the complementary single domain VHH fragment ([2]; 3.5 hours, FIG. 18) | concentration at which both signal paths overlap ([2]; FIG. 14) | concentration from which no substantial inhibition by FeTPPS but very strong inhibition by taurine (HOCl path) ([2]; FIG. 14) | concentrations at which singlet oxygen seems to play a role ([2]; FIG. 14) | concentration range of the second increase of the apoptosis ([2]; FIG. 14, not inhibited by taurine) | optimum range of the apoptosis induction ([2]; FIGS. 14A and B, 3.5 hours) | optimum conc. ([2]; Table 1, concentration necessary for optimum apoptosis induction, taken from FIGS. 13A, 13B, 15A, 15B, 20) | optimum conc. ([2]; Table 2, FIG. 20 experiment, 3.5 hours) | apoptosis induction in MKN-45 cells ([2]; increasing concentrations, 3-4 hours at 37° C., 5% CO2) | ROS signaling path induced ([2]; inhibitor analysis)
neutralize it | bind to human catalase |  |  | aCATcb0972: single domain VHH fragment that binds to and neutralizes human catalase; SEQ ID NO: 10 (protein, catalase binding) VHH: MAQVQLVESGGGLVQAGGSLRLSCAASERTFNTYGMGWFRQAPGKEREFVATISWSGDSTYYADSVKGRFTISRDNAKNTMYLQMNSLKPEDTAVYYCNANSEYGDSYWGQGTQVTVSSKKKHHHHHH | only in the left part of the optimum curve results in a strong inhibition and then, changes the optimum curve of apoptosis induction into a plateau curve | inhibited by the NOX1 inhibitor AEBSF in the entire range of concentrations | does not result in an inhibition of apoptosis, but changes the optimum curve into a plateau curve | does not inhibit in the left range of concentrations of the optimum curve, but then results in a strong inhibition of the apoptosis in the entire further range of the optimum curve | noteworthy synergistic effect | 0.37 pg/mL | ≥ 0.75 pg/mL | > 0.75 pg/mL | ≥ 6.2 pg/mL | 0 to 6.2 pg/mL | 0.4 pg/mL | 0.17 pg/mL | induces apoptosis in the form of an optimum curve and a subsequent second increase | via the NO/peroxynitrite and HOCl path
 |  | bind to human SOD1 | do not neutralize it | aSODcb0987: single domain VHH fragment binding to human SOD1, but not neutralizing; SEQ ID NO: 14 (protein, SOD binding) VHH: MAQVQLVESGGGIVQPGGSLRLSCVASESISEIDAMYWHRQAPGKERELVAGITNDGTRYYADSVKGRFTISRDNAKSTLYLQMNSLKFEDTAMYYCAALPNPPPGYWGQGTQVTVSSKKKHHHHHH |  |  |  |  |  |  |  |  |  |  |  |  |  | 
